Common to all, as to assay type: cell-based
The subject of one test is HIV-1 Bal. Nature of the test: Pseudotyped HIV-1 neutralization (HOS-CD4-CCR5 cells). To be noted: Table 2, clade B, R5. On the procedure:
(§1) To determine the potency and breadth of HIV-1 neutralization by the D1 mutants, viruses pseudotyped with Envs from HIV-1 isolates representing clades A-E and using either CCR5 (R5) or CXCR4 (X4) or both (R5X4) as a coreceptor were included. Pseudoviruses were derived from 293T cells and a neutralization assay was performed in duplicate using HOS-CD4-CCR5 (for all R5 and dual tropic viruses) or HOS-CD4-CXCR4 cell lines as described in Chen et al., Proc. Natl. Acad. Sci. USA, 105: 17121-17126 (2008)). Luminescence was measured 48 hours post-infection and the percentage neutralization was calculated by the following formula: (1—average RLU of inhibitor-containing wells/average RLU or virus-only wells)×100.

A further test has as its system HIV-1 JRFL. The description is as above. To be noted: Table 2, clade B, R5. On the procedure:
as §1

The next test concerns HIV-1 Env Bal. Nature of the test: HIV-1 Env-mediated cell-cell fusion. To be noted: Table 4, clade B, R5.
A further test has as its system HIV-1 Env JRFL. Description: HIV-1 Env-mediated cell-cell fusion. To be noted: Table 4, clade B, R5.

The values that follow come from patent US20160039904A1, “STABILIZED SINGLE HUMAN CD4 DOMAINS AND FUSION PROTEINS” (priority 2013, published 2016).

B1: m36.4: engineered single human antibody domain targeting a CD4i epitope on HIV-1 gp120, SEQ ID NO: 15 (antibody, V domains shown)
VH: QVQLVQSGGGLVQPGGSLRLSCAASAFDFSDYEMSWVREAPGKGLEWIGEINDSGNTIYNPSLKSRVTISRDNSKNTLYLQMNTLRAEDTAIYYCAIYGGNSGGEYWGQGTLVTVSS
Consider B1, for which the IC50 (commonly the concentration that inhibits the measured activity by half) was 16 nM with HIV-1 Bal, 18 nM in the test with HIV-1 JRFL and 128 nM in the test with HIV-1 Env JRFL. Further, the IC90 (commonly the concentration needed for an effect of 90%) with HIV-1 Bal is 75 nM; in the test on HIV-1 JRFL, 106 nM; in the test with HIV-1 Env Bal it was 235 nM; in the test on HIV-1 Env JRFL, 1080 nM.
